Reference: PMC9482650, “Quantitative fragmentomics allow affinity mapping of interactomes” (Nature Communications, 2022)

T1: MPDZ_10, O75970
T1 sequence (O75970 1624-1722, limits assumed, looked up): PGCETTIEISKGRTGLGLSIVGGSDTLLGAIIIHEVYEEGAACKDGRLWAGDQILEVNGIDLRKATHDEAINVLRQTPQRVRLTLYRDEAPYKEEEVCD

T2: PARD3B_1, Q8TEW8
T2 sequence (Q8TEW8 196-299, limits assumed, looked up): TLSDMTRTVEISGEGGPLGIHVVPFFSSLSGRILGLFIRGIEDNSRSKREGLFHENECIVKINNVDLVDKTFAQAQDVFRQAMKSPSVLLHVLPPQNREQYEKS

T3: PDZRN3_1, Q9UPQ7
T3 sequence (Q9UPQ7 244-349, limits assumed, looked up): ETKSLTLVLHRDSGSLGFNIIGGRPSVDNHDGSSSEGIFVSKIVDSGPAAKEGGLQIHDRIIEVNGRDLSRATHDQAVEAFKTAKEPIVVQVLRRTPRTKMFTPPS

T4: APBA1_2, Q02410
T4 sequence (Q02410 742-832, limits assumed, looked up): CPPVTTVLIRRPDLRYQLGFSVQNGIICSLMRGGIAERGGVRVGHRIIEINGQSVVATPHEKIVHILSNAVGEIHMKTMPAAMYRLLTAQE

T5: SNTG2, Q9NY99
T5 sequence (Q9NY99 68-166, limits assumed, looked up): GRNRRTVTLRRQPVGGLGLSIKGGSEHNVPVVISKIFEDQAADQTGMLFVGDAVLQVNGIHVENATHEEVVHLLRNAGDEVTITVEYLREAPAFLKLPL

T6: PTPN13_1, Q12923
T6 sequence (Q12923 1088-1188, limits assumed, looked up): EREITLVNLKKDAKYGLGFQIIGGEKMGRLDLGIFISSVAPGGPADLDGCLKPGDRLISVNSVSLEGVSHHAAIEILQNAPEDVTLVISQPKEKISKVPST

T7: DLG3_3, Q92796
T7 sequence (Q92796 374-475, limits assumed, looked up): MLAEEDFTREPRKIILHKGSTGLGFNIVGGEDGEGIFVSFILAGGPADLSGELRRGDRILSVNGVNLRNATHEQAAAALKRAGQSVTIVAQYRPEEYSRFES

T8: NHERF3_1, Q5T2W1
T8 sequence (Q5T2W1 4-100, limits assumed, looked up): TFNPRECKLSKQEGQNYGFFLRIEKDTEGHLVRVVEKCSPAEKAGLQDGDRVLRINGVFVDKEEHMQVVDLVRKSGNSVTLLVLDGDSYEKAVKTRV

T9: APBA2_1, Q99767
T9 sequence (Q99767 563-664, limits assumed, looked up): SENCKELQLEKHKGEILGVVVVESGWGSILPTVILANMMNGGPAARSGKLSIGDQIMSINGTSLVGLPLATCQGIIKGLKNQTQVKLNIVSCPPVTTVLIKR

T10: TIAM2, Q8IVF5
T10 sequence (Q8IVF5 885-986, limits assumed, looked up): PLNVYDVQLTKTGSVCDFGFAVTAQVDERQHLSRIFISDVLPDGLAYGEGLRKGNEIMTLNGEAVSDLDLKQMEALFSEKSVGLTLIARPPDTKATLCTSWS

B1: JAG1, P78504 (peptide)
chain: QSLNRMEYIV

Target: T1, MPDZ_10, O75970
Assay: holdup assay
Design: key: below the threshold = too weak to quantify, mostly under pKd 3.1 to 4
Conditions: plain residues with an end cap or a label only (N-terminal biotin on a linker: ado-ado)

Binder	pKd
B1	below the threshold

Target: FRMPD2_2, Q68DX3
Assay: holdup assay
Design: key: below the threshold = too weak to quantify, mostly under pKd 3.1 to 4
Conditions: plain residues with an end cap or a label only (N-terminal biotin on a linker: ado-ado)

Chain of FRMPD2_2, Q68DX3 (Q68DX3 944-1038): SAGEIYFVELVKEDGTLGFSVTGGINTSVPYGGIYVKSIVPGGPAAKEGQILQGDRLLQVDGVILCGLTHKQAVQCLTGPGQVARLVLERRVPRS

Binder	pKd
B1	below the threshold

Target: FRMPD2_3, Q68DX3
Assay: holdup assay
Design: key: below the threshold = too weak to quantify, mostly under pKd 3.1 to 4
Conditions: plain residues with an end cap or a label only (N-terminal biotin on a linker: ado-ado)

Chain of FRMPD2_3, Q68DX3 (Q68DX3 1073-1166): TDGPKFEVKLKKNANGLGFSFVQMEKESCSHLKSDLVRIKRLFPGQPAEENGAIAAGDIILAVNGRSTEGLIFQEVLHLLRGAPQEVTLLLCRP

Binder	pKd
B1	4.36

Target: LAP2, Q96RT1
Assay: holdup assay
Design: key: below the threshold = too weak to quantify, mostly under pKd 3.1 to 4
Conditions: plain residues with an end cap or a label only (N-terminal biotin on a linker: ado-ado)

Chain of LAP2, Q96RT1 (Q96RT1 other isoform, or with tags, fused parts or gaps): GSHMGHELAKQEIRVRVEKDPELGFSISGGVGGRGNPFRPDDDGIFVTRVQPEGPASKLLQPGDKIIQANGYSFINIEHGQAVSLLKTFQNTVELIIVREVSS

Binder	pKd
B1	below the threshold

Target: GRIP2_4, Q9C0E4
Assay: holdup assay
Design: key: below the threshold = too weak to quantify, mostly under pKd 3.1 to 4
Conditions: plain residues with an end cap or a label only (N-terminal biotin on a linker: ado-ado)

Chain of GRIP2_4, Q9C0E4 (Q9C0E4 446-548): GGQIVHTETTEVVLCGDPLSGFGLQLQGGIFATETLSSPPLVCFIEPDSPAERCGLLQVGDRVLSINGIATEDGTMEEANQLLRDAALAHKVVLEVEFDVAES

Binder	pKd
B1	below the threshold

Target: GRIP2_3, Q9C0E4
Assay: holdup assay
Design: key: below the threshold = too weak to quantify, mostly under pKd 3.1 to 4
Conditions: plain residues with an end cap or a label only (N-terminal biotin on a linker: ado-ado)

Chain of GRIP2_3, Q9C0E4 (Q9C0E4 238-339): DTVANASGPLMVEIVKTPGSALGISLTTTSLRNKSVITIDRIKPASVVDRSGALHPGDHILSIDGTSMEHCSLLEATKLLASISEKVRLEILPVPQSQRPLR

Binder	pKd
B1	below the threshold

Target: T2, PARD3B_1, Q8TEW8
Assay: holdup assay
Design: key: below the threshold = too weak to quantify, mostly under pKd 3.1 to 4
Conditions: plain residues with an end cap or a label only (N-terminal biotin on a linker: ado-ado)

Binder	pKd
B1	3.83

Target: T3, PDZRN3_1, Q9UPQ7
Assay: holdup assay
Design: key: below the threshold = too weak to quantify, mostly under pKd 3.1 to 4
Conditions: plain residues with an end cap or a label only (N-terminal biotin on a linker: ado-ado)

Binder	pKd
B1	below the threshold

Target: LNX1_2, Q8TBB1
Assay: holdup assay
Design: key: below the threshold = too weak to quantify, mostly under pKd 3.1 to 4
Conditions: plain residues with an end cap or a label only (N-terminal biotin on a linker: ado-ado)

Chain of LNX1_2, Q8TBB1 (Q8TBB1 371-470): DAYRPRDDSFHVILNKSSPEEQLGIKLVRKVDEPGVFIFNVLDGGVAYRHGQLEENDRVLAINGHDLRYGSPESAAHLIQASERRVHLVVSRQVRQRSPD

Binder	pKd
B1	4.51

Target: T4, APBA1_2, Q02410
Assay: holdup assay
Design: key: below the threshold = too weak to quantify, mostly under pKd 3.1 to 4
Conditions: plain residues with an end cap or a label only (N-terminal biotin on a linker: ado-ado)

Binder	pKd
B1	below the threshold

Target: T5, SNTG2, Q9NY99
Assay: holdup assay
Design: key: below the threshold = too weak to quantify, mostly under pKd 3.1 to 4
Conditions: plain residues with an end cap or a label only (N-terminal biotin on a linker: ado-ado)

Binder	pKd
B1	below the threshold

Target: HTRA2, O43464
Assay: holdup assay
Design: key: below the threshold = too weak to quantify, mostly under pKd 3.1 to 4
Conditions: plain residues with an end cap or a label only (N-terminal biotin on a linker: ado-ado)

Chain of HTRA2, O43464 (O43464 355-458): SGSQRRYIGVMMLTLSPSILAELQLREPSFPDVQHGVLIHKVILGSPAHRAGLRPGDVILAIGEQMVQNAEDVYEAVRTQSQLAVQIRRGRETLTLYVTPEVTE

Binder	pKd
B1	3.88

Target: GRIP2_6, Q9C0E4
Assay: holdup assay
Design: key: below the threshold = too weak to quantify, mostly under pKd 3.1 to 4
Conditions: plain residues with an end cap or a label only (N-terminal biotin on a linker: ado-ado)

Chain of GRIP2_6, Q9C0E4 (Q9C0E4 648-740): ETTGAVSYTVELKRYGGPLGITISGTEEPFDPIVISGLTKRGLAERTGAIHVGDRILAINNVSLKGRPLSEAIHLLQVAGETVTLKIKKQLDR

Binder	pKd
B1	4.61

Target: Inadl_2, Q8NI35
Assay: holdup assay
Design: key: below the threshold = too weak to quantify, mostly under pKd 3.1 to 4
Conditions: plain residues with an end cap or a label only (N-terminal biotin on a linker: ado-ado)

Chain of Inadl_2, Q8NI35 (Q8NI35 238-335): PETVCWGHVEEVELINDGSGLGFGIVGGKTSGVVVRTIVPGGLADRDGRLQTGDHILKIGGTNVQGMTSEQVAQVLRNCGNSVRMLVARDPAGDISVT

Binder	pKd
B1	4.77

Target: TJP1_3, Q07157
Assay: holdup assay
Design: key: below the threshold = too weak to quantify, mostly under pKd 3.1 to 4
Conditions: plain residues with an end cap or a label only (N-terminal biotin on a linker: ado-ado)

Chain of TJP1_3, Q07157 (Q07157 416-512): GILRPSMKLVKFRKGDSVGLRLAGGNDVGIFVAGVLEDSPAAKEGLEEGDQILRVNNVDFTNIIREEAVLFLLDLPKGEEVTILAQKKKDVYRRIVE

Binder	pKd
B1	below the threshold

Target: MAGI1_1, Q96QZ7
Assay: holdup assay
Design: key: below the threshold = too weak to quantify, mostly under pKd 3.1 to 4
Conditions: plain residues with an end cap or a label only (N-terminal biotin on a linker: ado-ado)

Chain of MAGI1_1, Q96QZ7 (Q96QZ7 1-106): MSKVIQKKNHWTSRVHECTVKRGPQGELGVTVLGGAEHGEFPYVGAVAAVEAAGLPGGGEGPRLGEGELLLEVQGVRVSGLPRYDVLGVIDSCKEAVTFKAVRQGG

Binder	pKd
B1	below the threshold

Target: CASK, O14936
Assay: holdup assay
Design: key: below the threshold = too weak to quantify, mostly under pKd 3.1 to 4
Conditions: plain residues with an end cap or a label only (N-terminal biotin on a linker: ado-ado)

Chain of CASK, O14936 (O14936 487-570): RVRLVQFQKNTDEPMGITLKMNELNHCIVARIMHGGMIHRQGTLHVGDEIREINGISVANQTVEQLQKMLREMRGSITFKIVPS

Binder	pKd
B1	below the threshold

Target: T6, PTPN13_1, Q12923
Assay: holdup assay
Design: key: below the threshold = too weak to quantify, mostly under pKd 3.1 to 4
Conditions: plain residues with an end cap or a label only (N-terminal biotin on a linker: ado-ado)

Binder	pKd
B1	below the threshold

Target: T7, DLG3_3, Q92796
Assay: holdup assay
Design: key: below the threshold = too weak to quantify, mostly under pKd 3.1 to 4
Conditions: plain residues with an end cap or a label only (N-terminal biotin on a linker: ado-ado)

Binder	pKd
B1	below the threshold

Target: LNX1_1, Q8TBB1
Assay: holdup assay
Design: key: below the threshold = too weak to quantify, mostly under pKd 3.1 to 4
Conditions: plain residues with an end cap or a label only (N-terminal biotin on a linker: ado-ado)

Chain of LNX1_1, Q8TBB1 (Q8TBB1 261-371): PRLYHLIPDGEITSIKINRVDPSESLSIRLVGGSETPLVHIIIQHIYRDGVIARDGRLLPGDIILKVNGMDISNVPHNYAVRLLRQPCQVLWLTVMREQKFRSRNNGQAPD

Binder	pKd
B1	below the threshold

Target: GRIP2_5, Q9C0E4
Assay: holdup assay
Design: key: below the threshold = too weak to quantify, mostly under pKd 3.1 to 4
Conditions: plain residues with an end cap or a label only (N-terminal biotin on a linker: ado-ado)

Chain of GRIP2_5, Q9C0E4 (Q9C0E4 544-642): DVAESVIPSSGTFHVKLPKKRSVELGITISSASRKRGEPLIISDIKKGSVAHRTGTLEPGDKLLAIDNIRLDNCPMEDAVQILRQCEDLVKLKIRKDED

Binder	pKd
B1	below the threshold

Target: T8, NHERF3_1, Q5T2W1
Assay: holdup assay
Design: key: below the threshold = too weak to quantify, mostly under pKd 3.1 to 4
Conditions: plain residues with an end cap or a label only (N-terminal biotin on a linker: ado-ado)

Binder	pKd
B1	below the threshold

Target: PARD3_3, Q8TEW0
Assay: holdup assay
Design: key: below the threshold = too weak to quantify, mostly under pKd 3.1 to 4
Conditions: plain residues with an end cap or a label only (N-terminal biotin on a linker: ado-ado)

Chain of PARD3_3, Q8TEW0 (Q8TEW0 582-685): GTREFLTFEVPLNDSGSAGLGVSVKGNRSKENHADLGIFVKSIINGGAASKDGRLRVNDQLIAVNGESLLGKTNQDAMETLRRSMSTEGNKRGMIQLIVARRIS

Binder	pKd
B1	4.37

Target: T9, APBA2_1, Q99767
Assay: holdup assay
Design: key: below the threshold = too weak to quantify, mostly under pKd 3.1 to 4
Conditions: plain residues with an end cap or a label only (N-terminal biotin on a linker: ado-ado)

Binder	pKd
B1	below the threshold

Target: GORASP1, Q9BQQ3
Assay: holdup assay
Design: key: below the threshold = too weak to quantify, mostly under pKd 3.1 to 4
Conditions: plain residues with an end cap or a label only (N-terminal biotin on a linker: ado-ado)

Chain of GORASP1, Q9BQQ3 (Q9BQQ3 1-208): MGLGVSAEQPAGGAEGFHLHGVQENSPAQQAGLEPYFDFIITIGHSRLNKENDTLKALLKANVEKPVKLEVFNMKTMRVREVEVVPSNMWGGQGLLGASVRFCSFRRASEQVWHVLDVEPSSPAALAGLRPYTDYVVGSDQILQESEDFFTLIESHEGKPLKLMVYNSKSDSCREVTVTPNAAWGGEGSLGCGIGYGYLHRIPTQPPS

Binder	pKd
B1	4.71

Target: NHERF2_2, Q15599
Assay: holdup assay
Design: key: below the threshold = too weak to quantify, mostly under pKd 3.1 to 4
Conditions: plain residues with an end cap or a label only (N-terminal biotin on a linker: ado-ado)

Chain of NHERF2_2, Q15599 (Q15599 142-238): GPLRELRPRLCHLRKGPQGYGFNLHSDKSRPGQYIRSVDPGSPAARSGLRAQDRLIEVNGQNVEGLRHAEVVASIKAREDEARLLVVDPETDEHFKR

Binder	pKd
B1	below the threshold

Target: T10, TIAM2, Q8IVF5
Assay: holdup assay
Design: key: below the threshold = too weak to quantify, mostly under pKd 3.1 to 4
Conditions: plain residues with an end cap or a label only (N-terminal biotin on a linker: ado-ado)

Binder	pKd
B1	4.18
